Sequences and labels used below:
T1: PavMYB.C2 (Prunus avium (sweet cherry), UniProt A0A6P5T6R9 1-74)
T1 sequence: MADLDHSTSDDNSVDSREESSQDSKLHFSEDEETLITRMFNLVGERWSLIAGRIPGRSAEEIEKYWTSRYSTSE

B1: UFGT promoter MBS3 probe (dsDNA)
DNA 1: TTCACTCCTCGACTCAGCAAGTGGTTATTTAGTGGTAGAGTTTGTTTTGA
DNA 2: TCAAAACAAACTCTACCACTAAATAACCACTTGCTGAGTCGAGGAGTGAA
B2: UFGT promoter MBS1 probe (dsDNA)
DNA 1: GATCGATATTTAGAGAGAGAAACAACCACCCGCGTGATGTGTGAGAGAAA
DNA 2: TTTCTCTCACACATCACGCGGGTGGTTGTTTCTCTCTCTAAATATCGATC
B3: UFGT promoter MBS2 probe (dsDNA)
DNA 1: TGAGAGAAAGAAATAAAAATCAGAAACAAAGGTAGCGTTTTTCTTTCTTT
DNA 2: AAAGAAAGAAAAACGCTACCTTTGTTTCTGATTTTTATTTCTTTCTCTCA

For the data set, the target named is T1, PavMYB.C2. Nature of the data set: EMSA; EMSA/Gel-Shift Kit (Beyotime) with LightShift chemiluminescent EMSA kit (Thermo Fisher), standard protocol; buffer, salt, pH and temperature not stated. Particulars: protein: recombinant; tags: GST (pGEX-4T-1); label: 3' biotin (Methods); blunt. For orientation: A gel shift assay detects complexes by their altered migration in electrophoresis.
On to B1, for which the binding result was “binds”.
The same measure for B2: “no binding”.
For the molecule B3, the binding result is on record as “no binding”.

The values are drawn from publication PMC12185008, “The PavMYB.C2-UFGT module contributes to fruit coloration via modulating anthocyanin biosynthesis in sweet cherry”.
